Experimental findings from PMC2901844 (DNA repair, 2010) are described below.

Experiment [1] has as its target T1, full length Cricetulus griseus Xrcc1-ECFP (Cricetulus griseus, UniProt O54935 1-633). The experiment in a line: pull-down.
In experiment [2] the target is T1, full length Cricetulus griseus …. The experiment can be described thus: far-Western, overlay or dot blot.
In a further experiment the target is Xrcc1(1–325)-ECFP (Cricetulus griseus, UniProt O54935 1-325). The experiment in a line: far-Western, overlay or dot blot.
Chain of Xrcc1(1–325)-ECFP (O54935 1-325): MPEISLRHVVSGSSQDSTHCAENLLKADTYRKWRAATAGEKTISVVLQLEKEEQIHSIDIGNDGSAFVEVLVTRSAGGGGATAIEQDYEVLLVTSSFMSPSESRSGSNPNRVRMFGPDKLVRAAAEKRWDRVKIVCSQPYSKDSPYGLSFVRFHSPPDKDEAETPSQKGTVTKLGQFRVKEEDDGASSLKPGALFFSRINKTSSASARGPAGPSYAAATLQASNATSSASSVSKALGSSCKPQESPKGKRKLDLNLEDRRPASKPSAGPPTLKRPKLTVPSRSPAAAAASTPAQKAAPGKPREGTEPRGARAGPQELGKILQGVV

T1 sequence (O54935 whole entry): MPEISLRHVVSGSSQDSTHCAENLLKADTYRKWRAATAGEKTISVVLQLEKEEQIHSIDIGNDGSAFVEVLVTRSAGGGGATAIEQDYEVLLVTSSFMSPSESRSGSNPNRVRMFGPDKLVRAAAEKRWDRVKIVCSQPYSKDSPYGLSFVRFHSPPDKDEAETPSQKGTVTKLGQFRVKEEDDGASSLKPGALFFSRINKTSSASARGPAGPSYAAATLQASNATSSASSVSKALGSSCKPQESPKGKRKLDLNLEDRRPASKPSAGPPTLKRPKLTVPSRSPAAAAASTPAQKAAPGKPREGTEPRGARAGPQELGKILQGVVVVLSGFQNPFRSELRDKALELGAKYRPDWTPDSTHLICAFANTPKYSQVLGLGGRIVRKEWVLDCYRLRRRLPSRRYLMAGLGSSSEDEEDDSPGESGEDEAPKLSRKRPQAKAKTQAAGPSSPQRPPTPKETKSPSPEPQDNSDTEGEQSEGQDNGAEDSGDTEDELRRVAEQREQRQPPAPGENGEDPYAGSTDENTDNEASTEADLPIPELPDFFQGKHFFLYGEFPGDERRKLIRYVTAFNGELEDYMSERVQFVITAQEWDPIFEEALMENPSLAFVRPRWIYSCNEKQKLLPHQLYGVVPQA

B1: catalytic domain of human UNG2 (Δ93 UNG2) (domain or fragment, UniProt P13051-1 94-313, looked up)
chain: FGESWKKHLSGEFGKPYFIKLMGFVAEERKHYTVYPPPHQVFTWTQMCDIKDVKVVILGQDPYHGPNQAHGLCFSVQRPVPPPPSLENIYKELSTDIEDFVHPGHGDLSGWAKQGVLLLNAVLTVRAHQANSHKERGWEQFTDAVVSWLNQNSNGLVFLLWGSYAQKKGSAIDRKRHHVLQTAHPSPLSVYRGFFGCRHFSKTNELLQKSGKKPIDWKEL
Take B1: the binding result in experiment [1] is “binds”.

B2: Cy-3 labelled Δ93 UNG2 (domain or fragment, human, UniProt P13051-1 94-313, looked up)
chain: FGESWKKHLSGEFGKPYFIKLMGFVAEERKHYTVYPPPHQVFTWTQMCDIKDVKVVILGQDPYHGPNQAHGLCFSVQRPVPPPPSLENIYKELSTDIEDFVHPGHGDLSGWAKQGVLLLNAVLTVRAHQANSHKERGWEQFTDAVVSWLNQNSNGLVFLLWGSYAQKKGSAIDRKRHHVLQTAHPSPLSVYRGFFGCRHFSKTNELLQKSGKKPIDWKEL
modifications: Cy-3 label (Cy 3 Ab Labeling kit), sites not stated
In the case of B2, the binding result (in experiment [2]; with Xrcc1(1–325)-ECFP) was “binds” throughout.
